Source: article PMC3806850

Tests used:
[1] = molecular target: C215Fab-SEE (not stated | not stated (staphylococcal)) (UniProt P12993); assay: SPR
[2] = molecular target: 5T4Fab(V18)-SEA (not stated | not stated (staphylococcal)) (UniProt P0A0L2); assay: SPR
Chain of UniProt P0A0L2 (P0A0L2 whole entry, looked up): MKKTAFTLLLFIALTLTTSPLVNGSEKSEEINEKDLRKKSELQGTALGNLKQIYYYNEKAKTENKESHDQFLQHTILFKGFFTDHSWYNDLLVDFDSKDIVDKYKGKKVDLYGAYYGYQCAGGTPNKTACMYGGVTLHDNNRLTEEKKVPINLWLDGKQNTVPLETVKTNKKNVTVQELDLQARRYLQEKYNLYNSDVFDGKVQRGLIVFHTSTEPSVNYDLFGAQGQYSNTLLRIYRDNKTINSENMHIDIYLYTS

## Recombinant soluble human MHC class II (HLA-DR1) in complex with HA peptide (from UniProt P01903) (peptide-MHC)
[1]
  Kd: 1.3 µM
  koff: 0.0029 s⁻¹
  kon: 2300 M⁻¹ s⁻¹
[2]
  Kd: 0.4 µM
  koff: 0.0011 s⁻¹
  kon: 2800 M⁻¹ s⁻¹
